From paper PMC7641127, “MCL1 binds and negatively regulates the transcriptional function of tumor suppressor p73” (Cell Death & Disease, 2020)
Each block holds one substance with its values, some of them ahead of it.

Tests used:
recombinant MCL1 (human) [1] = molecular target: recombinant MCL1 (human) (UniProt Q07820); assay: fluorescence polarisation; direct FPA: recombinant MCL1 with FITC-peptide, 30 min, 1× PBS pH 7.4; limit of detection of the probe 5 nM
recombinant MCL1 (human) [2] = molecular target: recombinant MCL1 (human) (UniProt Q07820); assay: fluorescence polarisation; competitive FPA: 50 nM recombinant MCL1, 10 nM F-BAK, titration of unlabeled p73 peptide or p73DBD, 1× PBS pH 7.4
[3] = molecular target: recombinant p73 DBD-TD (amino acids 112–398) (human) (UniProt O15350)
Chain of recombinant p73 DBD-TD (amino acids 112–398) (human) (O15350 112-398): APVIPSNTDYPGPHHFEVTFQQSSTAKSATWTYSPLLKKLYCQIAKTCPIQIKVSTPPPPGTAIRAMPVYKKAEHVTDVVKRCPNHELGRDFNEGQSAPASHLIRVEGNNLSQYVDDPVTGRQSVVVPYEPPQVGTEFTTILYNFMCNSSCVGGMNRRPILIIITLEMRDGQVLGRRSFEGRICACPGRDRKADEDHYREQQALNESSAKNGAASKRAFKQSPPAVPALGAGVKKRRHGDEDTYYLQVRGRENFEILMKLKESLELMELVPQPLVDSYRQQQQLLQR

- Kd (recombinant MCL1 (human) [1]): < 5 nM
Substance: N-terminally labeled FITC-p73_(23mer) peptide

- IC50 (recombinant MCL1 (human) [2]): 982 nM
Substance: p73_(23mer) peptide (23 amino acids, from the p73 tetramerization domain), unlabeled

- decrease in EMSA: binding of 10 μM p73 (DBD-TD) to 1 μM FITC-GADD45 DNA on titration of recombinant MCL1 (10–200 μM), free probe quantified [3]: 27%
Substance: recombinant MCL1 (from UniProt Q07820 1-350) (natural protein)
